# Data: the DeepSol protein solubility set
# Experiment: soluble on expression in E. coli; label from the status in PepcDB or PDB records
row,Sequence,soluble on expression in E. coli
1,MGSDKIHHHHHHMKVDYHIHLEEGPYSIGWLAKINESLQHYEPLKEEKHSMEWLVKIQERLQRRVNEGPFTTKWIDLYLEEALRKGIKEVGIVDHLYRFYEAKEYYEKYVDISDSGLGRLQKEWLDQVRVASLHDFTKAIEEAKERWSKRGVTLKLGIEADYFIGGEQQLQSLLALGDFDYVIGSVHFLNGWGFDNPDTKEYFKEHDLYALYDTFFKTVECAVRSELFDIIAHLDNIKVFNYRLDENEQISYYKKIARALVETNTATEINAGLYYRYPVREMCPSPLYLQVLAKHEVPITLSSDAHYPNDLGKYVEENIKTLRNHDIAHLATFTKRVRTMRLLEEVTISK,not soluble
2,MGSDKIHHHHHHMKVIKFGGSSLASGIQLNKVFQLVAEDSERKIVVVSAPGKRFKDDTKVTDLLIDCAAKALLGEDTSELFEAVIARYAGIALDTGMDDAIITQIRADLQKTISSDKSDPDKFLDRMKASGEDNNAKLIAAYFKFKGLNANYVNPKDAGLFVTDEHASAQVLPESYDRLFALREREGIIVFPGFFGYTKDGEISTFSRSGSDITGAIVANGAQAELYENFTDVDAVYAVNPAIVKNPKKVLELTYREMRELSYAGFSVFHDEALIPAFHAGIPVHIKNTNNPDSCGTRVVHERENNNGPVVGIASDDGFCSIYISKYLMNREIGFGRKVLQILEDAGLNYEHMPSGIDDLTIIIRENQFGEDTERTIMTRLKEELNADQVIMQHGISLIMVVGEAMRHNVGITSRASKALSDAKVNIEMINQGSSEVSIMFGVKEEQENTAVRALYNEFFSEVLV,not soluble
3,MGSDKIHHHHHHMKVLVVDDDKLARKGLISIMDWKKYGFEVVGDVQNGRKALEFLKDNEVDIVFTDIDMPEIDGIELMKMCKKEYPEVKFVVFSMYEDFRYAQSALRLGALDYISKISFEGDECDRILELVERKYKENHSQKETRNEDSELIKRLEKAWMNTRWIFNDSEFNRLYELTRGVELRTAERVFIKSFHSLQKLTGEELEFPSLSSVDSMLEWVKQWKENLYQTCLQTDKTKDIYMFARVILYTDEHIEENLKSEEAAAQIGMSRSYFSTRFKEMTGDTFHNYVISRKMYAAAQKMAKGTENITQIASNLGYDNFYYFTKVFSKEYGCMPTEYVGRIKKCSI,not soluble
4,MGSDKIHHHHHHMKVSEFDYELPPELIAQEPVEPRDASRLMVLHRKTQRIEHRIFREIIEYLEPGDLLVLNVSKVIPARLYARKKTGASIEILLIERLEEGIWKCLVRPGQKVKKGTELVIDEDLSAVCLGRGEDGTRILKFQPQDDRLIFEKGRTPLPPYIKNEVPLERYQTVYAKEEGSVAAPTAGLHFTPELIEKLKKKGVQFAEVVLHVGIGTFRPVKVEEVEKHKMHEEFYQVPKETVRKLRETRERGNRIVAVGTTTVRTLETIARLPEQEEYVGKTDLFIYPPFEFKLVDALVTNFHLPRSTLLMLVAAFAGKDFVMEAYREAVKRRYRFFSFGDAMLIL,soluble
5,MGSDKIHHHHHHMKVTLIGIDLAKNVLQVCGVNQVGKTLFNRTVKRTQLLKTLVQYPDAVIAMEACSGSNYWGRELLSRGFEVKLIPPQHVKPFVKGNKNDRNDAFAICEAAMRPNIIFVKPRTLAQVDIIISHRIRERRIRVRTALTNQIRGLLSEYGIVIPKGRDPLNLALPELLEDADNSLTTTARRYIRELLDELYAINASIKALEKEIRLQARNHEDTKRLTAIRGVAEIIATASVSFAGDGSGYQNGRHFSANLGLVPKEFSSGGKQKLGAITKRGNSYLRRQLIQGAWSVIRYAKNNDDRLSVWARKVIERRGKQKAAVAVANKLARIIWAMLYYKTEYRPS,not soluble
6,MGSDKIHHHHHHMKVVKFGGSSLASSQQLYKVLNIIKSDYTRRFVVVSAPGKRYEEDLKMTDALIQYYQNYINGKDIVKDQTWIINRYQEIISDLSLGSTIAEEITRSIEQLASLPIENNQFLYDCFLAAGEDNNAKLVATFFNQNDIPARYVHPNEAGIIVTKEPCNARIIPGSYDKIENLCLYNEVLVIPGFFGVTEDNQICTFSRGGSDITGSLIAAGIKADLYENFTDVDGIFAAHPGVVKNPHAIPELTYKEMRELAYAGFSVLHDEALLPAYRGRIPLVIKNTNNPQQPGTKIVLKHTRSNIAVTGIASDSRFASINVSKYLMNREVGFGRKVLQILEDLNISFEHMPTGIDDLSIVLREKELTPIKEQEILNYLTRKLEVDYVDIQHNLSTIVIVGENMKSQIGVTATATQALSREKINITMISQGSSEVSIMFVINSKDEKRAIKALYETFFQK,not soluble
7,MGSDKIHHHHHHMKYKIHWLYKTKRGLQTDLTTDYMNIEEVLQFAEDFEKTGRVKELLFYDEMDAEWSLKEMKKLSKQVEDEPQEILVYFDGGYDVQTKEAGVGICVYYKKGNKNYRIRRNAYIEGIYDNNEAEYASLLYSMNILEELGIKYEAVTLRGDSQVVLQQLAGEWPCYDEHLNHYLDQIEQKAKQMKLKLVCEPISRKQNKEAHQLATQALEGTVIDSHKEITE,not soluble
8,MGSDKIHHHHHHMLAYGYQKFGGPTVFEELPQSQLIPTDNQLLIKTLAVNLTEEDRLERLGTIQSVALPHIPGHDVIGKIIQVGAAVTDLDVGTVVAARTNHTYADQVCLDSDLAVTMPTNLDPVTAVSLVTPGIVAYKTVRYFADIQADQTVIVKGAGSPVGLLIIQLAKRLGAHVIAIASDRYANLIATLGVDQFVDYQHQNPVHVLADRGDVVINVAIDGVGGKDDLAMAKFDATIASFARHLPATSKSIRFQAIQPTEVISDQAALQLLFKLLDTGQLTTTINEQLPFNLTGFIQGHQRLDEPHVGQVVVAR,not soluble
9,MGSDKIHHHHHHMLCSVIQRQTREVSNTMSLDSYYLGFDLSTQQLKCLAINQDLKIVHSETVEFEKDLPHYHTKKGVYIHGDTIECPVAMWLEALDLVLSKYREAKFPLNKVMAVSGSCQQHGSVYWSSQAESLLEQLNKKPEKDLLHYVSSVAFARQTAPNWQDHSTAKQCQEFEECIGGPEKMAQLTGSRAHFRFTGPQILKIAQLEPEAYEKTKTISLVSNFLTSILVGHLVELEEADACGMNLYDIRERKFSDELLHLIDSSSKDKTIRQKLMRAPMKNLIAGTICKYFIEKYGFNTNCKVSPMTGDNLATICSLPLRKNDVLVSLGTSTTVLLVTDKYHPSPNYHLFIHPTLPNHYMGMICYCNGSLARERIRDELNKERENNYEKTNDWTLFNQAVLDDSESSENELGVYFPLGEIVPSVKAINKRVIFNPKTGMIEREVAKFKDKRHDAKNIVESQALSCRVRISPLLSDSNASSQQRLNEDTIVKFDYDESPLRDYLNKRPERTFFVGGASKNDAIVKKFAQVIGATKGNFRLETPNSCALGGCYKAMWSLLYDSNKIAVPFDKFLNDNFPWHVMESISDVDNENWDRYNSKIVPLSELEKTLI,not soluble
10,MGSDKIHHHHHHMLDDIKKTLWATADKQRANMDAAEYKHIVLGLIFLKYISDTFAGRRAELTRRFADENDEYFLRECDDELLAEELEDRDYYREVNVFWVPETARWESLRSAAKQTDIGKRIDEALAEIEAENPKLKGILDKRYARSQLPDGKLGELVDLISTIGFGEDASHARDVLGQVYEYFLGQFASAEGKKGGQFYTPASIVKTLVAVLAPHHGKVYDPCCGSGGMFVQSEKFIEAHGGKLGDVSIYGQESNPTTWRLAAMNLAIRGIDYNLGREPADTFVRNQHPDLRADFVLANPPFNVSDWWHGSLEGDPRWVYGTPPQGNANYAWLQHMLYHLKPNGRAGIVLANGSMSSSQNSEGDIRRAMVDADVVEVMVALPGQLFFNTQIPACLWFLAKQKTTRKGEVLFIDARKLGSMISRVQTELTDEIIERIANTVAAWRGEAIDGVGEYADVPGYCRSVKLAEIAEHGHVLTPGRYVGAEKVEDDDEAFVEKMQKLTEMLGEQMAKGAELDQLIRQKLGGMGYEF,not soluble
11,MGSDKIHHHHHHMLDKKTDILLAARKLFSEKDFTSVSMQAIAEECKMSKASIYKLFQSKEDLLLELLSFNQKQMVAAASRLQENTALTPEERLTQKVKMELEGFRRNQQFFNMLTYGNPRLHNDRVKQHIHQTRSTIICWHRDSLIQAYGETILPFVWDLVIILHGMMREFLMLIKIEEKPLELDPIAEFIISTLNQIIKNRETRQSLLPPEAIELYIHSASSYKPKDKSVLLSESLKELHKGISSLSAADYDVDELTSAAAMLEEEAKKEEPRAFLLKSLIGYLEQTGVLTQPVSMLKTLLIT,not soluble
